Assay results taken from IntAct's records for PubMed 34400613.

Key:
G3BP1 [1] = target: G3BP1 (UniProt Q13283)
G3BP1 [2] = target: G3BP1 (UniProt Q13283); remark: listed apart in the source

UniProt Q13283, sequence (Q13283 whole entry, looked up): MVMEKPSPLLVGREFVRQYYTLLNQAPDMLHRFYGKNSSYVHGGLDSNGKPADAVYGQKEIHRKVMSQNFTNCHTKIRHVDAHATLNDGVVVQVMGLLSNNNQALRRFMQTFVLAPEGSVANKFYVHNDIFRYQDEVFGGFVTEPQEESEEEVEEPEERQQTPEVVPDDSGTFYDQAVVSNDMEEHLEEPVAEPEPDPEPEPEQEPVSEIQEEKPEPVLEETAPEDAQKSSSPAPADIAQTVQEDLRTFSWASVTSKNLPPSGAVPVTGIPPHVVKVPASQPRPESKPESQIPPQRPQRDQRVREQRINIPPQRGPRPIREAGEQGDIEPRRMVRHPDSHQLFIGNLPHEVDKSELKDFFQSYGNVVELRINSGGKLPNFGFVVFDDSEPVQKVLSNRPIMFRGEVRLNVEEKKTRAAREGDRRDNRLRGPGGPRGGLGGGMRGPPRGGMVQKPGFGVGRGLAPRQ

Row | Substance | effect of a mutation on the interaction (G3BP1 [1]) | effect of a mutation on the interaction (G3BP1 [2])
1 | Nucleoprotein (SARS-CoV-2) (from UniProt P0DTC9) G18A | decreasing interaction strength | 
2 | Nucleoprotein (SARS-CoV-2) (from UniProt P0DTC9) G18E |  | decreasing interaction strength
3 | Nucleoprotein (SARS-CoV-2) (from UniProt P0DTC9) T16A |  | decreasing interaction strength
4 | Nucleoprotein (SARS-CoV-2) (from UniProt P0DTC9) I15A |  | decreasing interaction strength
5 | Nucleoprotein (SARS-CoV-2) (from UniProt P0DTC9) I15A;T16A;F17A;G18A | disrupting interaction strength | 
